The values below come from patent US20230295310A1 (ABCELLERA BIOLOGICS, published 2023).

The target in experiment [1] is T1, human CD3 expressed on cells (human, UniProt P07766 23-207; P04234 22-171; P09693 23-182).
T1 construct: whole, on cells; CD3 complex on Jurkat cells and on human primary T cells
As to the kind of experiment: flow cytometry, 25 nM. A digest of the protocol:
(§1)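 Antibodies at 25 nM in PBS + 2% FBS were incubated with CD3-expressing cells for 30 minutes at 4° C and analysed by flow cytometry. Median fluorescence intensity was normalized to isotype control to give fold over isotype (FOI); FOI ≥10 counted as binding.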
(In general: In flow cytometry, cells or beads pass a laser one at a time.)

Experiment [2] deals with T2, cynomolgus monkey CD3 expressed on primary T cells (cynomolgus monkey, UniProt Q95LI5 22-198; Q95LI8 22-171; Q95LI7 23-181).
T2 construct: whole, on cells; CD3 complex on purified cynomolgus monkey T cells; also called cyno CD3
T2 sequence (Q95LI5 22-198, chain 1 of 3): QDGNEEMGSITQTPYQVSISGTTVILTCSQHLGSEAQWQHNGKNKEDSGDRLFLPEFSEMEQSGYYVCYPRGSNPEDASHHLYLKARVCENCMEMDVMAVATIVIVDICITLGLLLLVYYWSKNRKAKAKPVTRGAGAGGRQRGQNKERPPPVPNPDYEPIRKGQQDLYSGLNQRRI
T2 sequence (Q95LI8 22-171, chain 2 of 3): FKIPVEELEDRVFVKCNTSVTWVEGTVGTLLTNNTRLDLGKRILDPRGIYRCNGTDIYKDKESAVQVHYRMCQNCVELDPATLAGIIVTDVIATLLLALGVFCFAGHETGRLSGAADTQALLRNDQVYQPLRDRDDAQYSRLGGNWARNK
T2 sequence (Q95LI7 23-181, chain 3 of 3): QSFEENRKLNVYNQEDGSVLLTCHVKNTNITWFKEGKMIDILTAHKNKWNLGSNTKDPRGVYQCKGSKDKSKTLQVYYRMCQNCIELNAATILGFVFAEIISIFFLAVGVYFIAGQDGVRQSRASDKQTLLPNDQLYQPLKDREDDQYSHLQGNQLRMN
Description: flow cytometry, 25 nM, cyno primary T cells. In short, it runs like this:
as §1

T1 sequence (P07766 23-207, chain 1 of 3): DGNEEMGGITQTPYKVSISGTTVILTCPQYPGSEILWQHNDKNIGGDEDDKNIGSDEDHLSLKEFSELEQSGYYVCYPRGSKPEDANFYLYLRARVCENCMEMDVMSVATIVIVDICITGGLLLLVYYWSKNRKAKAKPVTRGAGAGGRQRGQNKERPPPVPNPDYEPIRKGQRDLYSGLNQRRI
T1 sequence (P04234 22-171, chain 2 of 3): as the sequence (Q95LI8 22-171, chain 2 of 3) above, with V5I, K15N, V20I, T32S, N33D, N34I, A64T, N74S, L83V, R141H counted along it
T1 sequence (P09693 23-182, chain 3 of 3): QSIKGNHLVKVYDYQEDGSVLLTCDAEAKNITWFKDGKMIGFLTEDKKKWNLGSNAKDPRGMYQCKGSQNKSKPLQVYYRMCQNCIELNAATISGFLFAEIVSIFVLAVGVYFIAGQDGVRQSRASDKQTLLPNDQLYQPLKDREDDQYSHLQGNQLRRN

B1: mAb 157 (antibody, V domains shown)
VH: EVQLVESGGGLVKTGGSLRLSCVASGFSFKKAWMNWVRQAPGKGLEWVGRIKRTADGGATDYAAPVKGRFTLSRDDSKNTLYLQMNSLKTEDTAVYYCTTLDSSSWYVGYYYMDVWGKGTTVTVSS
VL: DIHMTQAPSSVSASVGDRVTFTCRASQDINNWLAWYQQKPGKAPKLLIYTASSLQSGVPSRFSGSGSGTDFTLTISSLQPEDFATYYCQQAHSLPITFGQGTRLGIK
On to B1, for which, in experiment [1], the “Human primary T Cell Binding (FOI)” value came out at 265 FOI and the “Jurkat Cell Binding (FOI)” value came to 163 FOI. Also, the binding result in experiment [2] was “no binding (tested: FOI >=10 = positive)”.

B2: mAb 165 (antibody, V domains shown)
VH: EVQLVESGGGLVKTGGSLRLSCVASGFSFKKAWMNWVRQAPGKGLEWVGRIKRNTDGGTADYAAPVKGRFTLSRDDSKRTLYLQMNSLKTEDTAVYYCTTLDSSSRYVGYYYMDVWGKGTTVTVSS
VL: DIQMTQSPSSVSASVGDRVIITCRASQDINNWLAWYQQKPGKVPKLLIYTASSLQSGVPSRFSGSGSGTDFTLTIGSLQPEDFATYYCQQAHSLPITFGQGTRLEIK
As to B2, in experiment [1], the “Human primary T Cell Binding (FOI)” value turned out to be 241 FOI and the “Jurkat Cell Binding (FOI)” value came to 154 FOI. The binding result in experiment [2] is listed as “no binding (tested: FOI >=10 = positive)”.

B3: mAb 164 (antibody, V domains shown)
VH: EVQLVESGGGLVKTGGSLRLSCVASGFSFKKAWMNWVRQAPGKGLEWVGRIKRNTDGGTADYAAPVKGRFTLSRDDSKKTLFLQMNSLKTEDTAVYYCTTLDSSSYYVGYYYMDVWGKGTTVTVSS
VL: DIQMTQSPSSVSASVGDRVTITCRASQDIKNWLAWYQQKPGKAPKLLIYTASSLQSGVPSRFSGSGSGTDFTLTIGSLQPEDFATYYCQQAHSLPITFGQGTRLEIK
Turning to B3, in experiment [1], the “Human primary T Cell Binding (FOI)” value was 237 FOI and the “Jurkat Cell Binding (FOI)” value amounted to 137 FOI. Besides, the binding result in experiment [2] is “no binding (tested: FOI >=10 = positive)”.

B4: mAb 163 (antibody, V domains shown)
VH: EVQLVESGGGLVKTGGSLRLSCVASGFSFKKAWMNWVRQVPGKGLEWVGRIKRNTDGGTADYAAPVKGRFTLSRDDSKKTLFLQMNSLKTEDTAVYYCTTLDSSSYYVGYYYMDVWGKGTTVTVSS
VL: DIQMTQSPSSVSASVGDRVIITCRASQDINNWLAWYQQKPGKAPKLLIYTASSLQSGVPSRFSGSGSGTDFTLTIGSLQPEDFATYYCQQAHSLPITFGQGTRLEIK
As to B4, in experiment [1], the “Human primary T Cell Binding (FOI)” value worked out at 278 FOI and the “Jurkat Cell Binding (FOI)” value was 118 FOI. In addition, the binding result in experiment [2] is given as “no binding (tested: FOI >=10 = positive)”.

B5: mAb 166 (antibody, V domains shown)
VH: EVQLVESGGGLVKTGGSLRLSCVASGFSFKKAWMNWVRQAPGRGLEWVGRIKRNTDGGTTDYAAPVKGRFTLSRDDSKNMLYLQMNSLKTEDTAVYYCTTLDSSSLYVGYYYMDVWGKGTTVTVSS
VL: DIQMTQSPSSVSASVGDRVTITCRASQDINNWLAWYQQKPGKAPKLLIYTASSLQSGVPSRFSGSGSGTDFTLTISSLQPEDFATYFCQQAHSLPITFGQGTRLEIT
With B5, in experiment [1], the “Human primary T Cell Binding (FOI)” value worked out at 266 FOI and the “Jurkat Cell Binding (FOI)” value amounted to 159 FOI. Also, the binding result in experiment [2] is “no binding (tested: FOI >=10 = positive)”.

B6: mAb 169 (antibody, V domains shown)
VH: EVQLVESGGGLVKTGGSLRLSCVASGFSFKKAWMNWVRQAPGKGLEWVGRIKRNTDGGTADYAAPVKGRFTLSRDDSKKTLFLQMNSLKTEDTAVYYCTTLDSSSYYVGYYYMDVWGKGTTVTVSS
VL: DIQMTQSPSSVSASVGDRVIITCRASQDINNWLAWYQQKPGKAPKLLIYTASSLQSGVPSRFSGSGSGTDFILTIGSLQPEDFATYYCQQAHSLPITFGQGTRLEIK
For the molecule B6, in experiment [1], the “Human primary T Cell Binding (FOI)” value was 264 FOI and the “Jurkat Cell Binding (FOI)” value was 173 FOI. The binding result in experiment [2] is “no binding (tested: FOI >=10 = positive)”.

B7: mAb 128 (antibody, V domains shown)
VH: EVQLVESGGGLVQPGRSLRLSCAASGFTFDDYTMHWVRQAPGKGLEWVSGISWNSGSIGYADSVKGRFTISRDNAKNSLYLQMNSLRAEDTALYYCAKDSSGYGYYYYYSMDVWGKGTTVTVSS
VL: EIVMTQSPATLSVSPGERATLSCRASQSVSSNLAWYQQKPGQAPRLLIYGASTRATGIPARFSGSGSGTEFTLTISSLQSEDFAVYYCQLYYNWPHFGQGTRLAIK
On to B7, for which, in experiment [1], the “Human primary T Cell Binding (FOI)” value is 101 FOI and the “Jurkat Cell Binding (FOI)” value was 97.1 FOI. The binding result in experiment [2] is given as “no binding (tested: FOI >=10 = positive)”.

B8: mAb 126 (antibody, V domains shown)
VH: EVQLVESGGGLVQPGRSLRLSCAASGFTFNDYTMHWVRQVPGKGLEWVSGISWNSGSIDYADSVKGRFTISRDNAKNSLYLQMNSLRAEDTALYYCAKDSSGYGYYYYYYMDVWGKGTTVTVSS
VL: EIVMTQSPATLSVSPGERATLSCRASQSVSINLAWYQQKPGQAPRLLIYGASTRATGIPARFSGSGSGTEFTLTISSLQSEDFAVYYCQLYHNWPHFGQGTRLEIK
In the case of B8, in experiment [1], the “Human primary T Cell Binding (FOI)” value stood at 97.6 FOI and the “Jurkat Cell Binding (FOI)” value was found to be 97 FOI. In experiment [2], the binding result is given as “no binding (tested: FOI >=10 = positive)”.

B9: mAb 159 (antibody, V domains shown)
VH: EVQLVESGGGLVQPGRSLRLSCAASGFTFNGYTMHWVRQVPGKGLEWVSGISWNSGSVGYADSVKGRFTISRDNAKNSLFLQMNSLRAEDTALYYCAKDSSGYGHYYYYYMDVWGKGTTVTVSS
VL: EIVMTQSPATLSVSPGERATLSCRASQSVRNNLAWYQQKPGQAPRLLIYGASTRATGIPARFSGSGSGTEFTLTISSLQSEDFALYYCQLYNNWPHFGQGTRLEIK
For the molecule B9, in experiment [1], the “Human primary T Cell Binding (FOI)” value came out at 171 FOI and the “Jurkat Cell Binding (FOI)” value came out at 125 FOI. The binding result in experiment [2] is given as “no binding (tested: FOI >=10 = positive)”.

B10: mAb 118 (antibody, V domains shown)
VH: EVQLVESGGGLVQPGRSLRLSCAASGFTFDDYTMHWVRQAPGKGLEWVSGISWNSGSIGYADSVKGRFTISRDNAKNSLYLQMNSLRAEDTALYYCSKDSSGYGYYLNYSLDVWGKGTTVTVSS
VL: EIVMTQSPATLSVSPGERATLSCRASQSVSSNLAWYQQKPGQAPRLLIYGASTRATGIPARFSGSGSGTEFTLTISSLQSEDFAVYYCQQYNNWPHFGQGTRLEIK
Take B10: in experiment [1], the “Human primary T Cell Binding (FOI)” value is 84.7 FOI and the “Jurkat Cell Binding (FOI)” value turned out to be 83.8 FOI. The binding result in experiment [2] was “no binding (tested: FOI >=10 = positive)”.

B11: mAb 162 (antibody, V domains shown)
VH: EVQLVESGGGLVQPGRSLRLSCAASGFTFDNYAMHWVRQAPGKGLEWVSGISWNSGSIGYADSVKGRFTISRDNAKNSLYLELNSLRAEDTALYYCAKDSSGYGYYYNYYMDVWGKGTTVTVSS
VL: EIVMTQSPATLSVSPGERATLSCRASQSVRSNLAWYQQKPGQAPRLLIYGASTRATGIPAKFSGSGSGTEFTLTISSLQSEDFAVYYCQYYYNWPHFGQGTRLEIK
With B11, in experiment [1], the “Human primary T Cell Binding (FOI)” value was 160 FOI and the “Jurkat Cell Binding (FOI)” value turned out to be 111 FOI. Moreover, in experiment [2], the binding result is given as “no binding (tested: FOI >=10 = positive)”.

B12: mAb 160 (antibody, V domains shown)
VH: EVQLVESGGGLVQPGRSLRLSCAVSGFTFNDYTMHWVRQVPGKGLEWVSGISWNSGSIGYADSVKGRFTISRDNAKNSLYLQMNSLRAEDTALYFCAKDSSGYGHYYYYYMDVWGRGTTVTVSS
VL: EIVMTQSPATLSVSPGERATLSCRASQSVRKNLAWYQQKPGQAPRLLIYGASTRATGIPARFSGSGSGTEFTLTISSLQSEDFAVYYCQLYNNWPHFGQGTRLEIK
In the case of B12, in experiment [1], the “Human primary T Cell Binding (FOI)” value was 169 FOI and the “Jurkat Cell Binding (FOI)” value was determined as 115 FOI. Further, in experiment [2], the binding result is “no binding (tested: FOI >=10 = positive)”.
